Laboratory results from paper PMC11297306 (Nature Communications, 2024).

Molecular target: VLDLRLBD-Fc fusion protein (human, UniProt P98155-1 31-355)
Assay: BLI; […] (2.6 µM) […]; kinetic buffer with 2 mM CaCl2
Details: both partners purified

B1: receptor-associated protein (RAP) (natural protein, human, UniProt P30533 35-353, looked up)
chain: YSREKNQPKPSPKRESGEEFRMEKLNQLWEKAQRLHLPPVRLAELHADLKIQERDELAWKKLKLDGLDEDGEKEARLIRNLNVILAKYGLDGKKDARQVTSNSLSGTQEDGLDDPRLEKLWHKAKTSGKFSGEELDKLWREFLHHKEKVHEYNVLLETLSRTEEIHENVISPSDLSDIKGSVLHSRHTELKEKLRSINQGLDRLRRVSHQGYSTEAEFEEPRVIDLWDLAQSANLTDKELEAFREELKHFEAKIEKHNHYQKQLEIAHEKLRHAESVGDGERVSRSREKHALLEGRTKELGYTVKKHLQDLSGRISRAR
  binding result: binds
